The source of these data is patent publication US20060153833A1 (Genmab, published 2006).

The target in experiment [1] is T1, subtype 1b derived E2 (BK strain) expressed by recombinant Sindbis virus Sinrep/HCV-BK1-1207 (Hepatitis C virus strain BK (genotype …, UniProt P26663 384-746)).
T1 construct: Immunoprecipitated from lysates of infected cells; also called genotype 1b antigen
The experiment is described as follows: immunoprecipitation from cells infected with Sinrep/HCV-BK1-1207.

Experiment [2] deals with T2, E2 glycoprotein expressed by recombinant vaccinia virus vHCV1-1488 (HCV-H) (Hepatitis C virus strain H (genotype 1a), UniProt P27958 384-746).
T2 construct: 35S-labelled and immunoprecipitated from cell lysates in pulse-chase experiments
The experiment is described as follows: pulse-chase immunoprecipitation, reducing SDS-PAGE.

T2 sequence (P27958 384-746 limits assumed): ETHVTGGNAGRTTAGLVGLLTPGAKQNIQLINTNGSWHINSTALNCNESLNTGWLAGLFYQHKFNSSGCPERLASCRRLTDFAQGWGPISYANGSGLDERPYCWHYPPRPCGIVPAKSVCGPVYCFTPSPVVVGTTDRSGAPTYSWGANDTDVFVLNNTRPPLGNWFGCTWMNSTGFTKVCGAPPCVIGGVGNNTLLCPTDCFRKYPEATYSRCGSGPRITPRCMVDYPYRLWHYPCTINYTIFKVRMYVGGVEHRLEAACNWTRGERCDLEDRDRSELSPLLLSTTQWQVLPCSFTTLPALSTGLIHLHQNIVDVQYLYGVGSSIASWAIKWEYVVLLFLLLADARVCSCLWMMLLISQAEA
T1 sequence (P26663 384-746 limits assumed): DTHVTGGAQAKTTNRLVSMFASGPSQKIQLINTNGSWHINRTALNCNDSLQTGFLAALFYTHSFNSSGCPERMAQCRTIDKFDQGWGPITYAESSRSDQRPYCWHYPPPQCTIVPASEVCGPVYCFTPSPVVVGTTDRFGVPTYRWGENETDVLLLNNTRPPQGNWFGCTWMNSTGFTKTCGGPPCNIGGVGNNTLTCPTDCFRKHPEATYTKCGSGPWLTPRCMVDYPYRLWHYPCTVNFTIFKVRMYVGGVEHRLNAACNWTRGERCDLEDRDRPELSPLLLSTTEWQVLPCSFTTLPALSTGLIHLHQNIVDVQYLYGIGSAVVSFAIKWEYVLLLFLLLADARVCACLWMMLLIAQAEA

B1: HMAb 503 (antibody, V domains shown)
VH: QVQLQQWGAGLLKPSETLSLTCAVYGGSLSGYFWTWIRQSPGKGLEWIGESNYSGSTRYNPSLKSRVTISVDTSQNQFSLKLSSVTAADTAVYYCARGWAVDGMDVWGQGTTVTVSS
VL: SYELTQPPSVSVSPGQTARITCSGDALPKQYAYWYQQKPGQAPVLVIYKDNERPSGIPERFSGSRSGTTVTLTISGVQAEDEADYYCQSADSSGSSWVFGGGTKLTVL
notes: also called antibody 503; clone 503
For the molecule B1, the binding result in experiment [1] and in experiment [2] was “binds” in each case.
